Results on 1 protein are retold here after US6960440 (TRUSTES OF COLUMBIA UNIVERSITY IN THE CITY OF NEW YORK, dated 2005).

This series concerns the molecule itself. Nature of the series: SDS-PAGE and Western blot of NADE overexpressed in 293T cells, wild type against Cys-to-Ser mutants. For orientation: A western blot detects proteins with antibodies after separation by electrophoresis.

B1: Myc-tagged mouse NADE expressed in 293T cells (pcDNA3.1(-)Myc-HisA/NADE) (other, not shown: small tags and cut ends)
chain: MANVHQENEEMEQPLQNGEEDRPVGGGEGHQPAGNNNNNNHNHNHNHHRRGQARRLAPNFRWAIPNRQMNDGLGGDGDDMEMFMEEMREIRRKLRELQLRNCLRILMGELSNHHDHHDEFCLMP
notes: It runs as 22 kDa and 44 kDa bands; also called Myc-tagged NADE; wild type NADE
On to B1, for which the binding result was “binds”.
